Target: the molecule itself
Experiment: SEC

Protein	stoichiometry N
PAN nucleotidase domain (residues 155-430) (domain or fragment, Methanocaldococcus jannaschii, UniProt Q58576 155-430, looked up) RAKAMEVDERPNVRYEDIGGLEKQMQEIREVVELPLKHPELFEKVGIEPPKGILLYGPPGTGKTLLAKAVATETNATFIRVVGSELVKKFIGEGASLVKDIFKLAKEKAPSIIFIDEIDAIAAKRTDALTGGDREVQRTLMQLLAEMDGFDARGDVKIIGATNRPDILDPAILRPGRFDRIIEVPAPDEKGRLEILKIHTRKMNLAEDVNLEEIAKMTEGCVGAELKAICTEAGMNAIRELRDYVTMDDFRKAVEKIMEKKKVKVKEPAHLDVLYR	6
PAN subcomplex I fragment (residues 74-150), coiled-coil OB-fold domain (domain or fragment, Methanocaldococcus jannaschii, UniProt Q58576 74-150, looked up, selenomethionine (in the crystals used for MAD phasing and refinement)) MKENEILRRELDRMRVPPLIVGTVVDKVGERKVVVKSSTGPSFLVNVSHFVNPDDLAPGKRVCLNQQTLTVVDVLPE	6

— article PMC3268689 (Molecular Cell, 2009)
